These results are taken from patent WO2001079494A1.

In the experiment the target is human TPO receptor (MPL) expressed on Ba/F3 cells (human) (UniProt P40238). As to the kind of experiment: cell-based or functional assay.

B1: 12B5 antibody (IgG) (antibody, from another filing)
scFv: QVQLVQSGGGLVRPGGSLSLSCAVSGITLRTYGMHWVRQAPGKGLEWVAGISFDGRSEYYADSVQGRFTISRDSSKNTLYLQMNSLRAEDTAVYYCARGAHYGFDIWGQGTMVTVSSGGGGTGGGGSGGGGSDIQMTQSPSTLSASIGDRVTITCRASEGIYHWLAWYQQKPGKAPKLLIYKASSLASGAPSRFSGSGSGTDFTLTISSLQPDDFATYYCQQYSNYPLTFGGGTKLEIK
In turn, B1 gave an ED50, proliferation of BaF/Mpl cells (WST-8) of 0.029 µM.

B2: 12B5 Fab (Fab, from another filing)
scFv: QVQLVQSGGGLVRPGGSLSLSCAVSGITLRTYGMHWVRQAPGKGLEWVAGISFDGRSEYYADSVQGRFTISRDSSKNTLYLQMNSLRAEDTAVYYCARGAHYGFDIWGQGTMVTVSSGGGGTGGGGSGGGGSDIQMTQSPSTLSASIGDRVTITCRASEGIYHWLAWYQQKPGKAPKLLIYKASSLASGAPSRFSGSGSGTDFTLTISSLQPDDFATYYCQQYSNYPLTFGGGTKLEIK
Consider B2, for which the ED50, proliferation of BaF/Mpl cells (WST-8) was found to be 34.7 µM.
